Sequences and labels used below:
B1: His-MBP-RGNEF^1–275 (domain or fragment, human, UniProt Q8N1W1 1-275, looked up)
chain: MELSCSEAPLYGQMMIYAKFDKNVYLPEDAEFYFTYDGSHQRHVMIAERIEDNVLQSSVPGHGLQETVTVSVCLCSEGYSPVTMGSGSVTYVDNMACRLARLLVTQANRLTACSHQTLLTPFALTAGALPALDEELVLALTHLELPLEWTVLGSSSLEVSSHRESLLHLAMRWGLAKLSQFFLCLPGGVQALALPNEEGATPLDLALREGHSKLVEDVTNFQGRWSPSFSRVQLSEEASLHYIHSSETLTLTLNHTAEHLLEADIKLFRKYFWDR

The assay “His-MBP-RGNEF^1–275” deals with B1. Briefly: SPR.
In the next assay the target is His-GST-TDP-43^wt (human, UniProt Q13148 1-414). As to the kind of experiment: SPR. In general terms: SPR reads the build-up and loss of mass on a sensor chip optically.

As usually defined, the Kd is the constant that tells how readily two partners part at equilibrium. Higher therefore signals lower affinity.

His-GST-TDP-43^wt, sequence (Q13148 whole entry): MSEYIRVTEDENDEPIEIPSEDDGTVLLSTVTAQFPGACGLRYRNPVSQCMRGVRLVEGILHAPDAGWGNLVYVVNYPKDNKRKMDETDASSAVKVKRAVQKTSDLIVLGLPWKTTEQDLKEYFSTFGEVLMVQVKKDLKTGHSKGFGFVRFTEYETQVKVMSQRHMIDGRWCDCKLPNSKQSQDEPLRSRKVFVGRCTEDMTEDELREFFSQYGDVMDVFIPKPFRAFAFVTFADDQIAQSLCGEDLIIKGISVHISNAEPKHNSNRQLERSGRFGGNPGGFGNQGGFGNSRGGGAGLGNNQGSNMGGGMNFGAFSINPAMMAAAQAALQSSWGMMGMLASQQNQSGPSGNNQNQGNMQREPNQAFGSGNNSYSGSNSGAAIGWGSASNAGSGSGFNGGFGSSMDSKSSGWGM

“His-TDP-43^1–296 (from UniProt Q13148 1-261) (domain or fragment)” gave a Kd with His-MBP-RGNEF^1–275 of 4.11 µM.

Regarding B1, the equilibrium dissociation constant (Kd) in the assay with His-GST-TDP-43^wt is 1.78 µM.

B2: His-RRM-1 (domain or fragment, human, UniProt Q13148 101-191, looked up)
chain: QKTSDLIVLGLPWKTTEQDLKEYFSTFGEVLMVQVKKDLKTGHSKGFGFVRFTEYETQVKVMSQRHMIDGRWCDCKLPNSKQSQDEPLRSR
Take B2: the binding result in the assay with His-MBP-RGNEF^1–275 is “binds”.
